Assay: label from the status in PepcDB records
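Further: failed if final PepcDB status was selected cloned or expressed and not failed if soluble or beyond.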

Protein production, failed:
MTGSQETRITILDAMTANQIAAGEVVERPASVVKELVENSLDAAARHITVEIEGGGLQLIRVRDDGRGIEPEDAPLAFARHATSKIRRAADLARITTLGFRGEALASIAAVARVEMATRPPGRPGGTLVRVAGGKPPEVTETGCPPGTSVTVKDLFYNTPARRQYLKKPSTEARAIVATVERLALGHPGVAFSLSLDGRRSLATPGNGDLQAVLAALYGLEIGRELLPFNGSGAGWSLHGFTSPPWLHRSNRDQQVLLINGRYITNRLLTWAIESCYRNVIPAGRHPLFVLHLAVDPGEVDVNVHPAKLEVRLQREQDLARQVTNLVKGALFTPRAVAPATISRSGDRKGAGSAPPVQQGFTFREPDKQARYWGEYVLRERARENREPEWPEKTGENTGAIKTREVPEGNGPVERDKPDPIGPETPAEETGKQVLPPLRALGQVFNTYILAGGEDGLYIIDQHAAHERCRYEALVKEGTPGSHPAQMLEPPLPLHLAPDMQVKLIDQIITLRELGFIIEEFGTGVFLLRSVPLGIPPGKEREVLEDFLAESTLPAPERLLKLIACHGAIKAGQSLAGAEMQKLLDDLRGVDHPYTCPHGRPAVVRLDEAQLARYFHRHLK, MTGTPQRSHPQPERTFVTIDFAALPDDFLWGTATSAYQIEGAVAEDGRSPSIWDTFSHTPGKIDNGDHGDVACDHYHRTHEDIELMRRLGTNAYRLSVAWPRVVPGGDGPVNAKGLAFYDRLVDDLLAAGITPSVTLYHWDLPQVLQDRGGWPERDTAEHFAAYAAVVAERLGDRVAHWATLNEPLCSAWIGHLEGKMAPGQTDLTAAVRASYHLLLGHGLAMQAIRAAAPDAQVGIVNNLSTIHAATDREEDLAAARRMDGHTNRWWLDPVHGRGFPQDMREVYGVELPERPGDMRLIGAELDWLGLNYYFPQTVAADPTGPAPQVRTVRRAGVPRTGMDWEIDAGGIEELLLRLTEEYGPRKLYVTENGSSFPDLVRPDGSVDDPERQEYLTAHLAACASAARKGAPLAGYFAWSLLDNFEWAYGYDKRFGLVHVDYATQVRTIKGSGHHYADIIGRARGRERKAA, MTGTRIAIGICTFRRPGIAATLASLGALRWPEGMSGLVIVADNDETPSARETVHAAAKGLPLPVCYLHAPARNISVARNAILEAAGARGLERLAFLDDDEMVEPGWIEALTEALARTGAEAVLGPVRAEHGAEAPAWMRESAIHDTRPTFLPDGSIKSGYSCNVLMDLTAPALEGLRFDPERGRSGGEDTAFFEAMLRRGGRLGFAPDALVRETVPADRARLGWLLRRRFRMGQTHASLIAGPGRAQRAKQALVALSKVAACSGMALAAVHDPLRRNNALLRGALHVGTLSALFGARPITIYGGTGPAPSTFDSKTDSYLVSRSRT, MTGVFLPPLPPSLRLQIKTMAESILPNAIRSQSQPQAFVQVEVWIRRLVWKIVIATVLLMAVGSATRVMNAGLACPDWPLCYGQWVPSQQMNLQVFLEWFHRLDAALIGFSTLILVGLSWWFRRVLPKWLPWATLGSLALILVQGLLGGLTVIELLRFDIVTAHLGTAMAFLGSLVIIGLCLMPYQSNQTAGKLRPVALASTTIIYLQCLLGGLVGSQWAAHQCLAIAGTQFCQVLHSHLLGVLPTVLGVGLTFWCTRRTPALNPFLRQLGNGALALLGGQILLGVATLKLHLQIEPLTVAHHTVGICLWATLLAIAVLAVRDHRPTAPITS, MTHLKIFLLLIVCALSVLDGKAQTGIALTDELNGKRIGVIGDSYVRNHKEPFENTWHYKFAKKHGMEYFNYGKNGNSIAYSSPRWGKAMYLRYAEMADSLDYVIVIGGHNDAFKLDSIGGIDNFKDKMEILCKGLVEKYPTAKIFFFTRWNCKNFKGSDSEKVVDAMIEVCGNYSIPIFDCARKGSIYADNDTFRRIYFQKSKNNTDTAHLNSKGHDRFLKVAESFLLQYLEHHHHHH, MTHVTLRSEFETLIDPYAPVAQVGTGFDFTEGPIWHPIDHYLLFSDMPGDVRRRWDARRGMAEVKRPSNKCNGMTYDAELNLIVCEHATSSLIRERPDGRREVLASHFGGQELNSPNDVCVHSSGAIYFSDPWYGRMPVYGVERPRQLGFQGVYRVMPGGEPKLVVDRNLFDQPNGLCFSPDERLLYVNDTVQALIRVFDVNADGTLSNARVFASSIKSELEPGLPDGMKCDQHGNVWVTAPGGVWVYSPRGELLGKVRVPELVANLAWGGPDFRTLYLTSTHSVYAIPTRVGPRHEPYMSGRRGGAGASAGPAAAAPILTDGEMRLDPQRCAMIIQDLQNDVIMDGGAFDGSGAPAHAKQQHVVENVRRLAEAARARGVAIIHVWFVVEPGAPGVTLNAPLFEGLVDSKAMVRGSWGAAPVSGLEPRPGDFVVEKMRMSAWEGTRLETILKATGRDMIINTGAWTNMSVEHTARTGADKGYFMIVPEDCCSTMNADWHSASINFAMQNVAIVTRADAVIRALG, MTHYHFVGIKGSGMSSLAQIMHDLGHEVQGSDIESYVFTEVALRNKGIKILPFDANNITKEMVVIQGNAFPDNHEEIVRAHELKLDIIKYHDFLGHVINQYTSVAVTGAHGKTSTTGLLSHVMNGDKKTSFLIGDGTGMGLPGSDYFAFEACEYRRHFLSYHPDYAIMTNIDFDHPDYFKNIDDVYDAFQHMALNVKKGIIAWGDDEYLRKLDVDIPVYYYGFKETDDIYAKNIQITEKGTQFDVYIKGEFYDQFLSPQYGNHNILNALAVIAISYLEDMNVENIKEALITFGGVKRRFNETKVSNQVIVDDYAHHPREISATIETARKKYPQKDVVAVFQPHTFSRTQAFLNEFAESLSKADQVFLCEIFGSIRENTGDLTIEDLINRIDGSTLIDENSIDVLEKFDNAVILFMGAGDIQKLLKAYFEKLGVKNDF, MTIADIVMLTATIIIWSLLIVNILLVIFGYVYYLKTDPVAPPPVEDEDAPFVSIMVPAHNEGIVIVRTVEALLNFNYPQDRYEIIVINDNSSDNSAELLANVQKKAVNRNLQIINTDNITGGKGKSNALNIGFKQAKGDVIAIYDADNTPEPNALRYLVGELIASEEYGAVIGKFRTRNRNASLLTRFINIETLAFQWMAQAGRFQLFKLCTIPGTNFIVRRSIIEAIGGWDDKALAEDTEISFRIYMMGYKIKFQPKAVTWEQEPQTLSVWFRQRTRWVKGNIYVIVKNAKLLFNPKASRIRFDILYFLSIYFLLMTSLVLSDIMLVLSMSGYLTTTLQGFSNSLWLLAILLFIFSTFVSITTEKGEMTLENILIIALMYITYSQMWLVVAAYGMVMYIKENVFHKQTQTKWYKTERFK, MTIFRFADGNSMTTKTNLLPHIPSSDAIISRWRWLAIIVSLVMALLASAFILLLSNAVDREVAQLNTSSELREQADLVLISLIDMAVADRSYAKNHKAEDKARFEHAARNLDDILEYIELIVYAHPQWYEWFTSFKKEVEARKAFMNDHMRALDALPDQSSQPSSSSEIPKIQVARLAQLMTSFINGDDVVRQKQREGIALMRAALTLAAIVSVVSTFMSAYFVINRFHRDVRSLKMYQLLLHSENIALEARVKERTQELERARNHAEKERQRVEMLLQDVSHRIGNSLGTVSSLLGLQLNRSDNEEVRSVLGAARDRIQTISTAHRRLRLSDDMETTLLAEFLSSVVHDVELAMPLELRENITIHTNFKECRLSSRDATTLGIILGELLTNSLKHAFPDKRSGDIYISFGPQKNGQLMLIVEDNGVGMKNQTQEKKTGLGRVVVEQLCMQFGEKPLFETSALGGTKIVIPLPKLTPNASKEAYA, MTIKTLDISPVGRVEGDLDVRVEIEDGQVVNAWTHAELFRGFEIILRGKDPQAGLIVTPRICGICGASHLTSASWALDTAWNTTVPRNAILARNLGQIVETIQSIPRYFYGLFAIDLTNKKYRSSRFYDEAVRRFAAFTGKSYELGVTISSKPVEIYALFGGQWPHSSYMVPGGVMCAPTLTDITRAWAILEYFRTNWLEPVWLGCSLERYEEIQTYDDFMDWLEADIKHRESDLGFYWRMGLDIGLDRYGAGVGKYVSWGYLPHEDKYQKPTIEGRNAAMIMKSGVYDSFSDTHTLMDHTFARENTTHSWYDEGNADVHPFDRTTKPTQKNTKDFKNAYSWSTAVLHQDFGRLEVGPLARQLVAGGQHGESWQHYDGFILDAFQKMGGASIHLRQLARVHEIVKLYRQAERCLREFVLNDPWYIKPKEKDGRGWGATEASRGSLCHWIDIEGGKIKNYQVIAATTWNVGPRDSEGVRGPIEEALIGTPIEDSRDPVEVGHVARSFDSCLVCTVHAHDAKTGEELARFRTA, MTILSAALLLFLILDPLGNIPVFLSVLKPLPPKRQRFVLARELLIALCVLMAFLWGGKYALELMHLRQESVAIAGGIVLFVIGIRMIFPRPEGLMGEIPDGEPFIVPLAIPLVAGPSGMAAVMLMGSNEPTRLWDWSLALMIAWIGASSILAAAPLLYKLLGHRALTAIERLMGMLLVAISVQMFLDGLGTYFKLPVSI, MTILVEHFVPDSRVDEKKVIEERDNELVLDGGFVVPKSKETDAFDAPDMNFLGHSFRDYENGESERQQGVEEFYRMQHIHQTYDFVKKMRKEYGKLNKMEMSIWECCELLNNVVDESDPDLDEPQIQHLLQTAEAIRRDYPDEDWLHLTALIHDLGKVLLLPEFGGLPQWAVVGDTFPVGCTFDSANIHHKYFKGNHDINNPKYNTKNGVYTEGCGLDNVLMSWGHDDYMYLVAKKNGTTLPHAGLFIIRYHSFYPLHKAGAYTHLMNDEDRDDLKWLHVFNKYDLYSKSKVLVDVEQVKPYYISLINKYFPAKLKW, MTIMTARFASILLGGCLAASLFSGPVFAVGNDNSTMPTCKKGEIYDQKTKKCVKQQSANVSDENRTDYAYSLAKAGRYEEALAMLDTVKDQNSAEVLNYRGYATRKLGRTDEGISYYLQSVKMDPQYAKVREYLGEAYVIKGRLDLAKEQLTTIKAICGTACEEYQDLNAAILNPSKI, MTIPELPKDLIEEILCYVPATYLKRLRSTCKGWNRLFKDDRRFAKKHYDKAAKQFLPLMSTNEELCAMSVNLHGTIPSLEVKDKPWLFVSDSKHCDIEISRIFHSGGLLLCFSRDGEISIIVWNPLTSETRLIRTRNRRDKGRNFVLGYYQEDKKTYYKILSFYLDSKDFEIFEFNSDSWRFIDDICPGLSLLYSDQCVSLKGNTYMFAIDDLSVSLLKYDFSTETSVPVPLPYKSRSFEAISLSVVREEKLSVLLQRDKSSKTEIWVTNVIDETTTKVMVVSWSKVLSLDLSPDLKIRYGESFLLDEEKKVIMIFNNRMEEENKSEDKLYIIGDDDNKATQVYTIHGYGPAVFNYFPSLVQIEQSSRQEEKS, MTIPNQIEVRGGRVHNLKNIDVDIPLNKFVAISGLSGSGKSSLAMGILYEEGSRRYLDALSTYMRRRIKQGSQVDVTSVKHIPSALALRQRPSVPNERATVGTMSETFNILRLIFSRLGSPVCPNGHRLKPSLKIAESMSLSGEKMGQLTCPVCGENFYAPSAEQFAFNSEGACIECGGTGKVRQLDEDKLIADENLSIKEGAVASWSLPGRNFMPNVAEYAGVRIDIPYKDLTAKEKDFVLNGPEKKYKMDFLSGTGRVFHDFNVLYENAHQAVYRSAQTSKSERAQKRIAEFFTYSICPVCHGSRLKPELLKQWVGNSNINQVSQKQLGELPTWADQIQAELPANMHKMAHALFAEFLDNLQPLLDLGLDYLTMARNGNTLSTGELQRIQLARTLRTETTGVLYVLDEPSIGLHPANVAGLIKVLRKLVNQGNSLVVVDHNVDIIAAADEVIEIGPGSGEKGGQILDHGPISTIKNDQQSLIRPYLDGSAQLLARKIANQINNDGISFEVKNYFNLKDIKANIPLNQLTAVTGFSGAGKTSLILDSLVPAIKAESKNEKLPKQIINFSAPVSNVVGVDASPIGKSTRSTVATYTSIMNNLRRLFASQPLAKEKHFTPTYFSYNNKQGACPTCGGTGIVTLDIQFLPDMQQVCPTCHGDRYNQKVQQVKWQGMSIVDILNLDIEGALPLFKRVPKIERELKLLKEVGLDYLHLGESTPTLSGGEAQRLKLVTHLSHKQSDTLFVFDEPTIGLHPLDVKTLVKVMQKLLDQGATLITITHDLNLIANCDYIIDLGPQGGNNGGQIVASGRVMDLIKDPHSLTTQYLAVYCENLICLKIIIDLLA

Source: a protein production outcome set (Wang et al. 2014)
